Experiments:
[1] = molecular target: BKV serotype II chimeric infectious virus (VP1 of isolate SB) (BK virus serotype II); experiment: cell-based or functional assay
[2] = molecular target: BKV serotype III chimeric infectious virus (VP1 of isolate AS) (BK virus serotype III); experiment: cell-based or functional assay
[3] = molecular target: T1, BKV serotype I infectious virus (VP1) (BK virus serotype I, UniProt P03088 1-362); experiment: cell-based or functional assay
T1 sequence (looked up): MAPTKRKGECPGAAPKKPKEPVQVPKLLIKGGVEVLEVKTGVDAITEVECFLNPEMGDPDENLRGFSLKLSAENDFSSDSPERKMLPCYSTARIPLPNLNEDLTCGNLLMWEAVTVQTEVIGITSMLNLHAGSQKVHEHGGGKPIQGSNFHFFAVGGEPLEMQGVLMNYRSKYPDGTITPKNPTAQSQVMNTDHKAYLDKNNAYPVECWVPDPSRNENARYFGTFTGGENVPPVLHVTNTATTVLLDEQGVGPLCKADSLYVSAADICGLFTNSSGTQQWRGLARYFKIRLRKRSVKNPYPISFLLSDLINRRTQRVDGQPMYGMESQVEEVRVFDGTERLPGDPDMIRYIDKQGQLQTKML

[4] = molecular target: BKV serotype IV chimeric infectious virus (VP1 of strain ITA-4) (BK virus serotype IV); experiment: cell-based or functional assay
[5] = molecular target: T2, BKV serotype I VP1 pentamer (BK virus serotype I, UniProt P03088 30-297); experiment: SPR, antibody captured on Protein A
T2 construct: also called serotype I pentamers; BKV-VP1 serotype I pentameric protein

B1: EBB-C1975-A7 (antibody, V domains shown)
VH: QVQLVESGGGLVQPGGSLRLSCAASGFTVSRNYMSWVRQAPGKGLEWVSGIYSGGSTYYADSVKGRFTISRDYSKNTLSLQMNTLRVEDTAVYFCAREDEFWSGYSAGVDWGQGTLVTVSS
VL: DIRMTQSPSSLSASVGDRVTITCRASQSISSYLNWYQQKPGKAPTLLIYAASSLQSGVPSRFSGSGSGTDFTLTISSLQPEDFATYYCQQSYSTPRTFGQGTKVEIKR
With B1 the “neutralization EC50” value [1] was 0.11 µg/mL, the “neutralization EC90” value [1] was 14.2 µg/mL and the “neutralization EC50” value [2] was > 100 µg/mL. For the same binder, the “neutralization EC90” value [2] was > 100 µg/mL, the “neutralization EC50” value [3] was 0.024 µg/mL and the “neutralization EC90” value [3] was 5.15 µg/mL. For the same binder, the “neutralization EC50” value [4] was 0.28 µg/mL, the “neutralization EC90” value [4] was 7.79 µg/mL and the binding result [5] was “no binding”.

— patent US20170088605A1 (Novartis, published 2017)
